{"source": "IntAct's records for PubMed 31515488", "parents": {"B1": {"name": "Keratin, type I cytoskeletal 40 (Homo sapiens), Q6A162 (parent)", "chain": "MTSDCSSTHCSPESCGTASGCAPASSCSVETACLPGTCATSRCQTPSFLSRSRGLTGCLLPCYFTGSCNSPCLVGNCAWCEDGVFTSNEKETMQFLNDRLASYLEKVRSLEETNAELESRIQEQCEQDIPMVCPDYQRYFNTIEDLQQKILCTKAENSRLAVQLDNCKLATDDFKSKYESELSLRQLLEADISSLHGILEELTLCKSDLEAHVESLKEDLLCLKKNHEEEVNLLREQLGDRLSVELDTAPTLDLNRVLDEMRCQCETVLANNRREAEEWLAVQTEELNQQQLSSAEQLQGCQMEILELKRTASALEIELQAQQSLTESLECTVAETEAQYSSQLAQIQCLIDNLENQLAEIRCDLERQNQEYQVLLDVKARLEGEINTYWGLLDSEDSRLSCSPCSTTCTSSNTCEPCSAYVICTVENCCL"}, "B2": {"name": "Lymphotoxin-alpha (Homo sapiens), P01374 (parent)", "chain": "MTPPERLFLPRVCGTTLHLLLLGLLLVLLPGAQGLPGVGLTPSAAQTARQHPKMHLAHSTLKPAAHLIGDPSKQNSLLWRANTDRAFLQDGFSLSNNSLLVPTSGIYFVYSQVVFSGKAYSPKATSSPLYLAHEVQLFSSQYPFHVPLLSSQKMVYPGLQEPWLHSMYHGAAFQLTQGDQLSTHTDGIPHLVLSPSTVFFGAFAL", "partner": "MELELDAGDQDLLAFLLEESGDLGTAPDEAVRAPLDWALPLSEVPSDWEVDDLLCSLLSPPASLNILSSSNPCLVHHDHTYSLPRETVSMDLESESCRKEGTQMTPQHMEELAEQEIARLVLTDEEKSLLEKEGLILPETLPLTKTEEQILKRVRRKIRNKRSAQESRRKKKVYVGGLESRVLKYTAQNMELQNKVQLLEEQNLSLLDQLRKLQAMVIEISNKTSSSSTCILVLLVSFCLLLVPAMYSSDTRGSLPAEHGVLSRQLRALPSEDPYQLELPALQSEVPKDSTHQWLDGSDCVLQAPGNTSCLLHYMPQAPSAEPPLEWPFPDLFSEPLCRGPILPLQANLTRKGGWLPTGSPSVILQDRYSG"}, "B3": {"name": "NADPH-dependent diflavin oxidoreductase 1 (Homo sapiens), Q9UHB4 (parent)", "chain": "MPSPQLLVLFGSQTGTAQDVSERLGREARRRRLGCRVQALDSYPVVNLINEPLVIFVCATTGQGDPPDNMKNFWRFIFRKNLPSTALCQMDFAVLGLGDSSYAKFNFVAKKLHRRLLQLGGSALLPVCLGDDQHELGPDAAVDPWLRDLWDRVLGLYPPPPGLTEIPPGVPLPSKFTLLFLQEAPSTGSEGQRVAHPGSQEPPSESKPFLAPMISNQRVTGPSHFQDVRLIEFDILGSGISFAAGDVVLIQPSNSAAHVQRFCQVLGLDPDQLFMLQPREPDVSSPTRLPQPCSMRHLVSHYLDIASVPRRSFFELLACLSLHELEREKLLEFSSAQGQEELFEYCNRPRRTILEVLCDFPHTAAAIPPDYLLDLIPVIRPRAFSIASSLLTHPSRLQILVAVVQFQTRLKEPRRGLCSSWLASLDPGQGPVRVPLWVRPGSLAFPETPDTPVIMVGPGTGVAPFRAAIQERVAQGQTGNFLFFGCRWRDQDFYWEAEWQELEKRDCLTLIPAFSREQEQKVYVQHRLRELGSLVWELLDRQGAYFYLAGNAKSMPADVSEALMSIFQEEGGLCSPDAAAYLARLQQTRRFQTETWA"}, "B4": {"name": "ADP-ribosylation factor-like protein 11 (Homo sapiens), Q969Q4 (parent)", "chain": "MGSVNSRGHKAEAQVVMMGLDSAGKTTLLYKLKGHQLVETLPTVGFNVEPLKAPGHVSLTLWDVGGQAPLRASWKDYLEGTDILVYVLDSTDEARLPESAAELTEVLNDPNMAGVPFLVLANKQEAPDALPLLKIRNRLSLERFQDHCWELRGCSALTGEGLPEALQSLWSLLKSRSCMCLQARAHGAERGDSKRS", "partner": "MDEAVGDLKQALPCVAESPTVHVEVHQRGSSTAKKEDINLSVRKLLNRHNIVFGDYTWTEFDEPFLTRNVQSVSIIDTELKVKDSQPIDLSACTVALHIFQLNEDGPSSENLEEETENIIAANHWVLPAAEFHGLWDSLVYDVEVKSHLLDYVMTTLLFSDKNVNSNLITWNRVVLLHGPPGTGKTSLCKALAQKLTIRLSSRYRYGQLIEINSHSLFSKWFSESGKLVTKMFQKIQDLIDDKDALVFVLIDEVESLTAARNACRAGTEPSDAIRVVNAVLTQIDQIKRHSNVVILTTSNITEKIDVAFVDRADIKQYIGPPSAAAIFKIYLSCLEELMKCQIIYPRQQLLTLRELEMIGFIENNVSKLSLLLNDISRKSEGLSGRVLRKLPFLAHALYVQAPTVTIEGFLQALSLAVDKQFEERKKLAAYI"}, "B5": {"name": "Testis-specific protein 10-interacting protein (Homo sapiens), Q3SY00 (parent)", "chain": "MGQDTDMLNTYQQLVRTPSVRPGQDVRLQAPGTRTGLLKLLSTVSQDKQGCLGSGDGVPNQDLQQRSQSSRQTAKKDRKPRGQSKKGQGSEESEDHFPLLPRKPSFPFQWAWESIATDVRAVLQPSSPTPGHQALPMPSSFSQRQSRRKSTANLPEAHGCCWKTEAQNLKARQQLGAWGGVSIPTGKGELGSEPPSGLQLPGRRPGSGSASDKQVQLQSLGAEEAERGLSSGVLPQRPRRGSISEEEQFSEATEEAEEGEHRTPCRRRAGCQRKGQISGEEASDEGEVQGQSQGSSPSFNNLRRRQWRKTRAKELQGPWDLEKLHRQLQRDLDCGPQKLPWKTLRAAFQASKRNGKAYASGYDETFVSANLPNRTFHKRQEATRSLLQAWERQRQEERQQAELRRARTQHVQRQVAHCLAAYAPRGSRGPGAAQRKLEELRRQERQRFAEYQAELQGIQHRVQARPFLFQQAMQANARLTVTRRFSQVLSALGLDEEQLLSEAGKVDREGTPRKPRSHRSMGVRMEHSPQRPPRTEPTGSQPDRHYNPSLDPECSP"}}, "data": [{"variants_of": "B1", "settings": "with wt1_human WT1, P19544", "values": [{"variant": "MTSDCSSTHCSPESCGTASGCAPASSCSVETACLPGTCATSRCQTPSFLSRSRGLTGCLLPCYFTGSCNSPCLVGNCAWCEDGVFTSNEKETMQFLNDRLASYLEKVRSLEETNAELESRIQEQCEQDIPMVCPDYQRYFNTIEDLQQKILCTKAENSRLAVQLDNCKLATDDFKSKYESELSLRQLLEADISSLHGILEELTLCKSDLEAHVESLKEDLLCLKKNHEEEVNLLREQLGDRLSVELDTAPTLDLNRVLDEMRCQCETVLANNRREAEEWLAVQTEELNQQQLSSAEQLQGCQMEILELKRTASALEIELQAQQSLTESLECTVAETEAQYSSQLAQIQCLIDNLENQLAEIRCDLERQNQEYQVLLDVKARLEGEINTYWGLLDSEDSRLSCSPCLTTCTSSNTCEPCSAYVICTVENCCL", "note": "[S406L]", "effect of a mutation on the interaction": "with no effect"}]}, {"variants_of": "B1", "settings": "with k2c4_human KRT4, P19013", "values": [{"variant": "MTSDCSSTHCSPESCGTASGCAPASSCSVETACLPGTCATSRCQTPSFLSRSRGLTGCLLPCYFTGSCNSPCLVGNCAWCEDGVFTSNEKETMQFLNDRLASYLEKVRSLEETNAELESRIQEQCEQDIPMVCPDYQRYFNTIEDLQQKILCTKAENSRLAVQLDNCKLATDDFKSKYESELSLRQLLEADISSLHGILEELTLCKSDLEAHVESLKEDLLCLKKNHEEEVNLLREQLGDRLSVELDTAPTLDLNRVLDEMRCQCETVLANNRREAEEWLAVQTEELNQQQLSSAEQLQGCQMEILELKRTASALEIELQAQQSLTESLECTVAETEAQYSSQLAQIQCLIDNLENQLAEIRCDLERQNQEYQVLLDVKARLEGEINTYWGLLDSEDSRLSCSPCLTTCTSSNTCEPCSAYVICTVENCCL", "note": "[S406L]", "effect of a mutation on the interaction": "with no effect"}]}, {"variants_of": "B1", "settings": "with mta1_human MTA1, Q13330", "values": [{"variant": "MTSDCSSTHCSPESCGTASGCAPASSCSVETACLPGTCATSRCQTPSFLSRSRGLTGCLLPCYFTGSCNSPCLVGNCAWCEDGVFTSNEKETMQFLNDRLASYLEKVRSLEETNAELESRIQEQCEQDIPMVCPDYQRYFNTIEDLQQKILCTKAENSRLAVQLDNCKLATDDFKSKYESELSLRQLLEADISSLHGILEELTLCKSDLEAHVESLKEDLLCLKKNHEEEVNLLREQLGDRLSVELDTAPTLDLNRVLDEMRCQCETVLANNRREAEEWLAVQTEELNQQQLSSAEQLQGCQMEILELKRTASALEIELQAQQSLTESLECTVAETEAQYSSQLAQIQCLIDNLENQLAEIRCDLERQNQEYQVLLDVKARLEGEINTYWGLLDSEDSRLSCSPCLTTCTSSNTCEPCSAYVICTVENCCL", "note": "[S406L]", "effect of a mutation on the interaction": "with no effect"}]}, {"variants_of": "B1", "settings": "with prs8_human PSMC5, P62195", "values": [{"variant": "MTSDCSSTHCSPESCGTASGCAPASSCSVETACLPGTCATSRCQTPSFLSRSRGLTGCLLPCYFTGSCNSPCLVGNCAWCEDGVFTSNEKETMQFLNDRLASYLEKVRSLEETNAELESRIQEQCEQDIPMVCPDYQRYFNTIEDLQQKILCTKAENSRLAVQLDNCKLATDDFKSKYESELSLRQLLEADISSLHGILEELTLCKSDLEAHVESLKEDLLCLKKNHEEEVNLLREQLGDRLSVELDTAPTLDLNRVLDEMRCQCETVLANNRREAEEWLAVQTEELNQQQLSSAEQLQGCQMEILELKRTASALEIELQAQQSLTESLECTVAETEAQYSSQLAQIQCLIDNLENQLAEIRCDLERQNQEYQVLLDVKARLEGEINTYWGLLDSEDSRLSCSPCLTTCTSSNTCEPCSAYVICTVENCCL", "note": "[S406L]", "effect of a mutation on the interaction": "with no effect"}]}, {"variants_of": "B1", "settings": "with snai1_human SNAI1, O95863", "values": [{"variant": "MTSDCSSTHCSPESCGTASGCAPASSCSVETACLPGTCATSRCQTPSFLSRSRGLTGCLLPCYFTGSCNSPCLVGNCAWCEDGVFTSNEKETMQFLNDRLASYLEKVRSLEETNAELESRIQEQCEQDIPMVCPDYQRYFNTIEDLQQKILCTKAENSRLAVQLDNCKLATDDFKSKYESELSLRQLLEADISSLHGILEELTLCKSDLEAHVESLKEDLLCLKKNHEEEVNLLREQLGDRLSVELDTAPTLDLNRVLDEMRCQCETVLANNRREAEEWLAVQTEELNQQQLSSAEQLQGCQMEILELKRTASALEIELQAQQSLTESLECTVAETEAQYSSQLAQIQCLIDNLENQLAEIRCDLERQNQEYQVLLDVKARLEGEINTYWGLLDSEDSRLSCSPCLTTCTSSNTCEPCSAYVICTVENCCL", "note": "[S406L]", "effect of a mutation on the interaction": "with no effect"}]}, {"variants_of": "B2", "settings": "with creb3_human CREB3, O43889", "values": [{"variant": "MTPPERLFLPRVCGTTLHLLLLGLLLVLLPGAQGLPGVGLTPSAAQTARQHPKMHLAHSNLKPAAHLIGDPSKQNSLLWRANTDRAFLQDGFSLSNNSLLVPTSGIYFVYSQVVFSGKAYSPKATSSPLYLAHEVQLFSSQYPFHVPLLSSQKMVYPGLQEPWLHSMYHGAAFQLTQGDQLSTHTDGIPHLVLSPSTVFFGAFAL", "note": "[T60N]", "effect of a mutation on the interaction": "with no effect"}]}, {"variants_of": "B3", "settings": "with ccd33_human CCDC33, Q8N5R6", "values": [{"variant": "V153I", "effect of a mutation on the interaction": "with no effect"}]}, {"variants_of": "B3", "settings": "with cpin1_human CIAPIN1, Q6FI81", "values": [{"variant": "V153I", "effect of a mutation on the interaction": "with no effect"}]}, {"variants_of": "B3", "settings": "with itf2_human TCF4, P15884", "values": [{"variant": "V153I", "effect of a mutation on the interaction": "with no effect"}]}, {"variants_of": "B3", "settings": "with mtus2_human MTUS2, Q5JR59", "values": [{"variant": "P281L", "effect of a mutation on the interaction": "with no effect"}]}, {"variants_of": "B4", "settings": "with pch2_human TRIP13, Q15645", "values": [{"variant": "C148R", "effect of a mutation on the interaction": "with no effect"}]}, {"variants_of": "B5", "settings": "with mtus2_human MTUS2, Q5JR59", "values": [{"variant": "H96L", "effect of a mutation on the interaction": "with no effect"}]}]}
